Test system: OC[C@H]1O[C@H](O[C@H]2O[C@H](CO)[C@@H](O)[C@H](O)[C@H]2O)[C@H](O)[C@@H](O)[C@@H]1O
Test: purified protein
Details: 25 °C, Glucose Liquiform kit solution, 0.03125-4 mM trehalose

Xcc TreA (recombinant Xcc trehalase) (Xanthomonas citri subsp. citri 306)
Km: 77 µM
